Data from patent US11377503.
Where a chain is given by its changes, count along the chain named.

Legend:
[1] = biological target: T1, CD39 mutant 19 (human, UniProt P49961); test: FACS
T1 chain: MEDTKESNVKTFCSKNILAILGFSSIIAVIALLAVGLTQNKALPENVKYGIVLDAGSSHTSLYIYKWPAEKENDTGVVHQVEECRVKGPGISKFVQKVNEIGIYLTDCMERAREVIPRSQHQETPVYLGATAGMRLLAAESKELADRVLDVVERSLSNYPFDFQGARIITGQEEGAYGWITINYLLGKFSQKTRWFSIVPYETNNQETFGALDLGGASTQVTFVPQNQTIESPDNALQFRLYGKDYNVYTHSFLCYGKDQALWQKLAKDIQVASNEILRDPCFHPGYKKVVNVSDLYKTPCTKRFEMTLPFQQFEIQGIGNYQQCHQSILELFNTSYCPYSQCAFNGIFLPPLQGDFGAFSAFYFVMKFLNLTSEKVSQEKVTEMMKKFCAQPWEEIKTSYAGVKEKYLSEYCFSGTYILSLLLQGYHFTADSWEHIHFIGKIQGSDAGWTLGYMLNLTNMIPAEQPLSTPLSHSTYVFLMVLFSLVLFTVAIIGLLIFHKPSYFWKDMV

[2] = biological target: T2, murine CD39 (CHO-moCD39) (mouse, UniProt P55772); test: FACS
T2 chain: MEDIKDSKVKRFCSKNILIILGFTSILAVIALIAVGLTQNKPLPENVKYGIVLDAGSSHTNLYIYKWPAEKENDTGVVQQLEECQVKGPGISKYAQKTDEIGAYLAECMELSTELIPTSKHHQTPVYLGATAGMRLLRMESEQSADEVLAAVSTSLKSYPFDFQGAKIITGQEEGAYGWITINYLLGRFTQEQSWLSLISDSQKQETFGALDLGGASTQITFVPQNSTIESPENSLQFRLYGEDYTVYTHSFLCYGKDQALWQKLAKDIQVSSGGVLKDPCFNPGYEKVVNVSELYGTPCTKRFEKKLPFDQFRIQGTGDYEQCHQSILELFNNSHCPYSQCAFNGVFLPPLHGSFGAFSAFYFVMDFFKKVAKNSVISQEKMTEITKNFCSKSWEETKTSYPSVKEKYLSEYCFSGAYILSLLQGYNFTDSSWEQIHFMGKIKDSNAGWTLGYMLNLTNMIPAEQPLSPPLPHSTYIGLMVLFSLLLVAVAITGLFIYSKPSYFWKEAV

[3] = biological target: T3, CD39-L2 (ENTPD6) (human, UniProt O75354); test: ELISA
T3 chain: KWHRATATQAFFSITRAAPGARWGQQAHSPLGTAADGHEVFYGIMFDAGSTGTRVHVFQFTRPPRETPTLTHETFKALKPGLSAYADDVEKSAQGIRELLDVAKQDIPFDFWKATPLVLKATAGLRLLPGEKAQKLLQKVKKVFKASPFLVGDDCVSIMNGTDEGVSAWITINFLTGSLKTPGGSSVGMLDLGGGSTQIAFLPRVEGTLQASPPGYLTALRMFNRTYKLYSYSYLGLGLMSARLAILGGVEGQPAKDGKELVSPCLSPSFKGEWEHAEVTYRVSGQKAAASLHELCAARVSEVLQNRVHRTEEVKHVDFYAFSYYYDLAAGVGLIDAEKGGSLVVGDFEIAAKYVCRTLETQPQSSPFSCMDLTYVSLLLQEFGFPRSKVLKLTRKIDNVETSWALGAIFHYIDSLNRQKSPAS

[4] = biological target: T4, CD39-L1 (ENTPD2) (human, UniProt Q9Y5L3); test: ELISA
T4 chain: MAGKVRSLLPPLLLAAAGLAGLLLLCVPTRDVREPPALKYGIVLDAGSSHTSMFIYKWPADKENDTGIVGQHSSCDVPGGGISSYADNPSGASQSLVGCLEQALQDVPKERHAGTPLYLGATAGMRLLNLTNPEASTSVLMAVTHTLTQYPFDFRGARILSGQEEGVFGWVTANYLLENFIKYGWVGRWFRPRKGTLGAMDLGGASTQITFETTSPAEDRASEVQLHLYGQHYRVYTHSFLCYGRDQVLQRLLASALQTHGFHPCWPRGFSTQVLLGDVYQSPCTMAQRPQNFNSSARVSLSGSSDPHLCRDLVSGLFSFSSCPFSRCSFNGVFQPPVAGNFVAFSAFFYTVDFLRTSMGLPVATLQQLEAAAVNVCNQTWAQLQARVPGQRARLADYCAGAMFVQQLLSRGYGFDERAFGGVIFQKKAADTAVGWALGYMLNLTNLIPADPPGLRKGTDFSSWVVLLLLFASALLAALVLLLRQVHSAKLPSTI

[5] = biological target: T5, CD39-L4 (ENTPD5) (human, UniProt O75356); test: ELISA
T5 chain: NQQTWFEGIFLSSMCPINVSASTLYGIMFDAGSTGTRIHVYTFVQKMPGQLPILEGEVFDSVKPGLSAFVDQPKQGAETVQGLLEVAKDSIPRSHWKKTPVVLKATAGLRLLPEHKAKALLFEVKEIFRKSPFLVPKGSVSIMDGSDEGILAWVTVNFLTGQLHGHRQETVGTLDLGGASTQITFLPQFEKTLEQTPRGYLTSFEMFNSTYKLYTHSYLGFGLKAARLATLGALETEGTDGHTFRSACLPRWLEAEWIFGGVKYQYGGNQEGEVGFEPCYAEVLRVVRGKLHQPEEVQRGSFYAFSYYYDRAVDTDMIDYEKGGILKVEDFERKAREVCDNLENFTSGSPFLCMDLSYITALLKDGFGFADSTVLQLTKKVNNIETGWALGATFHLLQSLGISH

[6] = biological target: T6, CD39-L3 (ENTPD3) (human, UniProt O75355); test: ELISA
T6 chain: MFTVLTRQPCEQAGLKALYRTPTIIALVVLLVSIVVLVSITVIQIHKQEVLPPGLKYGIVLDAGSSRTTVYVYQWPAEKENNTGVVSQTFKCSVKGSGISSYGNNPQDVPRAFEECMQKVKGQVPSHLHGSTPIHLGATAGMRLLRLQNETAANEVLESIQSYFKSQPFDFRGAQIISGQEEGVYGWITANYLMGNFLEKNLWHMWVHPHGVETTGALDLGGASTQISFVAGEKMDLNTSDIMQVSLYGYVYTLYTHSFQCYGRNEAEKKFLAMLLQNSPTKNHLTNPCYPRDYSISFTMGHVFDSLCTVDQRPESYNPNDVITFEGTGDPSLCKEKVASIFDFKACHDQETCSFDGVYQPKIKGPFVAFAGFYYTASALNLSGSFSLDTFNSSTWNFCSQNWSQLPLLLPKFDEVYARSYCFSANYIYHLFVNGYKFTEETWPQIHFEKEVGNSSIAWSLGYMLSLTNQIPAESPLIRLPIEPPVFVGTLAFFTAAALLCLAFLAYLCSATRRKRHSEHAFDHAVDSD

[7] = biological target: T7, human CD39 (Ramos cells) (human, UniProt P49961); test: FACS, Ramos cells, first experiment
T7 chain: T1 chain with A138R, A139M, K142E

[8] = biological target: T7, human CD39 (Ramos cells); test: FACS, Ramos cells, second experiment

binding result [1]: no binding
binding result [2]: no binding
binding result [3]: no binding
binding result [4]: no binding
binding result [5]: no binding
binding result [6]: no binding
EC50 [7]: 0.16 µg/mL
EC50 [8]: 0.19 µg/mL
B1: I-394 (antibody, V domains shown)
VH: EVKLQQSGPELVKPGASVKMSCKASGYTFTDYNMHWVKQSPGRTLEWIGYIVPLNGGSTFNQKFKGRATLTVNTSSRTAYMELRSLTSEDSAAYYCARGGTRFAYWGQGTLVTVSA
VL: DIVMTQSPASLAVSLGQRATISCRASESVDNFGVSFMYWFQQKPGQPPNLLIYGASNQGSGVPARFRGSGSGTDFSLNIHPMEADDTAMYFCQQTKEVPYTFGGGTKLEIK
